Measured values as given in IntAct's records for PubMed 29374162.

B1: Interleukin-3 receptor subunit alpha (Homo sapiens), P26951-1 (parent)
chain: MVLLWLTLLLIALPCLLQTKEDPNPPITNLRMKAKAQQLTWDLNRNVTDIECVKDADYSMPAVNNSYCQFGAISLCEVTNYTVRVANPPFSTWILFPENSGKPWAGAENLTCWIHDVDFLSCSWAVGPGAPADVQYDLYLNVANRRQQYECLHYKTDAQGTRIGCRFDDISRLSSGSQSSHILVRGRSAAFGIPCTDKFVVFSQIEILTPPNMTAKCNKTHSFMHWKMRSHFNRKFRYELQIQKRMQPVITEQVRDRTSFQLLNPGTYTVQIRARERVYEFLSAWSTPQRFECDQEEGANTRAWRTSLLIALGTLLALVCVFVICRRYLVMQRLFPRIPHMKDPIGDSFQNDKLVVWEAGKAGLEECLVTEVQVVQKT
partner: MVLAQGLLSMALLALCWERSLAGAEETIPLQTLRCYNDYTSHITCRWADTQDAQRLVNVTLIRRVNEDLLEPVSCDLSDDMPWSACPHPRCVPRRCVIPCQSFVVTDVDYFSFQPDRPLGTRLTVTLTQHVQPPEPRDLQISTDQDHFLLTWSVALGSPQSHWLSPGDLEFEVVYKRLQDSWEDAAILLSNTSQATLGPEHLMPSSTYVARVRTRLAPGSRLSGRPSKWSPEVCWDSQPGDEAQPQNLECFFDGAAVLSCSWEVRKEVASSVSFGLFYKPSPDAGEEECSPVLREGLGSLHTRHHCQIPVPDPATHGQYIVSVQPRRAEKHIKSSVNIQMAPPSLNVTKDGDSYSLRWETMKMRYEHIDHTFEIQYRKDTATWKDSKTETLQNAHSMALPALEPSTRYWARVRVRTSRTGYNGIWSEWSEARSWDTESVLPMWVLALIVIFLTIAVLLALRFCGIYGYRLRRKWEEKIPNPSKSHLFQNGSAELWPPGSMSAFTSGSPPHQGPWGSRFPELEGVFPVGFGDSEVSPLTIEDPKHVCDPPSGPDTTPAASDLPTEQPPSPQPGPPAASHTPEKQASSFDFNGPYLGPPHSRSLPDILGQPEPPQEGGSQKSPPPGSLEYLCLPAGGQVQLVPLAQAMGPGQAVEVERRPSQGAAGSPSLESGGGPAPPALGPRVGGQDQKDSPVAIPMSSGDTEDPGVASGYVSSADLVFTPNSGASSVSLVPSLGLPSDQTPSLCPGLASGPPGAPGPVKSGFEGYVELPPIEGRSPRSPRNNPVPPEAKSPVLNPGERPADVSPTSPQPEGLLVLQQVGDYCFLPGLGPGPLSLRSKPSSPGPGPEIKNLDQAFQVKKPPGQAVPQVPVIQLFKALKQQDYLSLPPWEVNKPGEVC

Variants of: B1
Settings: with il3rb_human CSF2RB

effect of a mutation on the interaction | Variant
with no effect | MVLLWLTLLLIALPCLLQTKEDPNPPITNLRMKAKAQQLTWDLNRNVTDIECVKDADYSMPAVNNSYCQFGAISLAEVTNYTVRVANPPFSTWILFPENSGKPWAGAENLTCWIHDVDFLSCSWAVGPGAPADVQYDLYLNVANRRQQYECLHYKTDAQGTRIGCRFDDISRLSSGSQSSHILVRGRSAAFGIPATDKFVVFSQIEILTPPNMTAKCNKTHSFMHWKMRSHFNRKFRYELQIQKRMQPVITEQVRDRTSFQLLNPGTYTVQIRARERVYEFLSAWSTPQRFECDQEEGANTRAWRTSLLIALGTLLALVCVFVICRRYLVMQRLFPRIPHMKDPIGDSFQNDKLVVWEAGKAGLEECLVTEVQVVQKT [C76A;C195A]
with no effect | MVLLWLTLLLIALPCLLQTKEDPNPPITNLRMKAKAQQLTWDLNRNVTDIECVKDADYSMPAVNNSYCQFGAISLCEVTNYTVRVANPPFSTWILFPENSGKPWAGAENLTCWIHDVDFLSCSWAVGPGAPADVQYDLYLNVANRRQQYECLHYKTDAQGTRIGCRFDDISRLSSGSQSSHILVRGRSAAFGIPCTLKFVVFSQIEILTPPNMTAKCNKTHSFMHWKMRSHFNRKFRYELQIQKRMQPVITEQVRDRTSFQLLNPGTYTVQIRARERVYEFLSAWSTPQRFECDQEEGANTRAWRTSLLIALGTLLALVCVFVICRRYLVMQRLFPRIPHMKDPIGDSFQNDKLVVWEAGKAGLEECLVTEVQVVQKT [D197L]
